According to paper PMC12871931, “The importin‐alpha superfamily engages in ethylene signaling by shuttling ETHYLENE INSENSITIVE 2 from the endoplasmic reticulum to the nucleus” (The Febs Journal, 2025):

B1: GB1‐AtEIN2C^1215–1281 (domain or fragment)
chain: KGKCTTAVTLLDLIKDVEMAISCRKGRTGTAAGDVAFPKGKENLASVLKRYKRRLSNKPVGMNQDGP

Target: ΔIBB_IMPα1 (importin α1 lacking the IBB domain), Arabidopsis thaliana, recombinant (Arabidopsis thaliana)
Assay: BLI; Octet K2; biotinylated ΔIBB_IMPα1 or IMPα4 loaded (15 μM, 600 s) on streptavidin biosensors; peptides/protein in solution; 100 mM Tris pH 7.0, 100 mM KCl, 0.01% Tween 20; room temperature; 300 s association, 300 s dissociation; dose response curves, 1:2 heterogeneous ligand model

| Binder | Kd |
| --- | --- |
| LKRYKRRL [NOP‐1 (EIN2 NLS peptide, EIN2 residues 1262–1269)] | 2.5 µM |
| B1 | 8.8 µM |
| KDVEMAISCRKGRTGTAAGDVAFPKGKENLASVLKRYKRRL [N41P‐1 (EIN2 residues 1229–1269)] | 8.1 µM |
